Laboratory results: the supplement of paper PMC7125110
± gives the standard error. This sample holds only a part of the variants without activity.

B1: glmS ribozyme (parent)
chain: AUAAAAGCGCCAGAACUACAGAAAUGUAGUUGACGAGGAGGAGGUUUAUCGAAUUUUCGGCGGAUGCCUCCAAA

Variants of: B1
Assay: self-cleavage kobs at 2500 uM GlcN6P; higher = faster cleavage; RNA array
Conditions: with glucosamine-6-phosphate
Method in brief: (§1)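 E. coli RNA polymerase transcribed barcoded ribozyme variants in situ on sequenced MiSeq chips, which were tracked via a hybridised Cy3 probe at 37 °C. Tiles were imaged over ~14 h after glucosamine-6-phosphate (40 μM to 10 mM) in HEPES/KCl/Mg(OAc)2 buffer was flowed in. Normalised per-tile medians were fit to one- or two-exponential decays for kobs, and kcat and KM came from weighted Michaelis–Menten fits.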

Variant	self-cleavage kobs at 2500 uM GlcN6P [s⁻¹]
A42C C58A G60U	< 1e-05
C16U G29A G41U G51U	< 1e-05
U30A G43U	< 1e-05
A33C G63A C68A	< 1e-05
C8U A15C C71G	< 1e-05
A64G C68G C71G	0.000122 ± 3.9e-05
U55G U65C	0.000396 ± 8.6e-05
G7U A39G U56G C70A	< 1e-05
A33C G41C U69G	< 1e-05
G13C G29U C50A U56C G62C U69A	0.000141 ± 5.2e-05
G13C U45A U46C	5.29e-05 ± 1.6e-05
G7C G9U G60A	< 1e-05
A6G G60U G66U	< 1e-05
G13U G41C G60A	< 1e-05
C8G G29U U31A	< 1e-05
C8U A12C A15U U30A U54G U55G C70U	< 1e-05
U30C A39U U56G	2.5e-05 ± 1.2e-05
A39G G40U U56A	0.000452 ± 0.00011
G9U C10U C34U A53U G63U	< 1e-05
A36G G40C C61U G63C A64C	< 1e-05
A12C U31G G32A	0.000161 ± 5.6e-05
A15U G40U U49A G60U	< 1e-05
A14G G40C G41C A48G C71G	< 1e-05

Variant	self-cleavage kobs at 2500 uM GlcN6P [s⁻¹]
A12G A14C A33U C34G G38U	< 1e-05
C16U U57A C70A	8.78e-05 ± 3.6e-05
A14U U31A U69A	0.000236 ± 5.6e-05
G7A A36U U46G A48C C70U C71G	< 1e-05
C8U A15G G43A	< 1e-05
A6C G9A G32A	< 1e-05
A14C A52G	0.000215 ± 3.3e-05
A12U G13U A33G A39U A48U	< 1e-05
G9U C16A C34A C50G	7.29e-05 ± 2.6e-05
A36G G43A A48U A52G	< 1e-05
G13C A15C G32U G44A G59U	< 1e-05
G9C C50G U55A U57G C70U	0.000283 ± 0.0001
A33G U45G U47G	< 1e-05
G35U G40U U49G	< 1e-05
G7C A52U U55G C68G	< 1e-05
A6G A33C U46G	< 1e-05
A39U A48G C71U	4.36e-05 ± 1.5e-05
G7U A12C A36C A39U U47C	< 1e-05
A36C G44A C70A	< 1e-05
C11U G40A C71U	0.000785 ± 0.00023
G38C A39G G59A	< 1e-05
U47G C50G	4.35e-05 ± 1.2e-05
G43A G66C C71A	< 1e-05

Variant	self-cleavage kobs at 2500 uM GlcN6P [s⁻¹]
C34U C50G C68A U69A	0.000141 ± 4.9e-05
C8U C16U G60A C67A	< 1e-05
C11G A15G G59U	9.06e-05 ± 3.1e-05
A15U C58G	2.95e-05 ± 1e-05
G37A G44U G51U G66A	< 1e-05
A14U A15U U56A G59C G63C	< 1e-05
U46A C58A C61U	< 1e-05
C34A A48C A64U	< 1e-05
C10U U31G A42C	< 1e-05
G9C A12C A42C	< 1e-05
G38U A42U U49A	< 1e-05
A14G A36G U56G G59C G62U	< 1e-05
A33C G37A G40C A42C	< 1e-05
G40U G51U G59A	< 1e-05
C10U G32U G41C U55G	< 1e-05
U30G U55C U65A C71U	8.23e-05 ± 1.7e-05
A14G A33U G43C G62A	< 1e-05
G9A A14G U56G	5.76e-05 ± 2.3e-05
G35U G37U G43U G44A	< 1e-05
C8A G32U A42U A48G G51C	< 1e-05
G21U G29C A42G	0.000483 ± 0.00016
G32A G38U A53C U55C G60C C71U	< 1e-05
A36C G40U U55A U56G C70G	< 1e-05

Variant	self-cleavage kobs at 2500 uM GlcN6P [s⁻¹]
U30G A42C A52C G60U	< 1e-05
A36G U55A U65G	< 1e-05
G40C U47G G51A	< 1e-05
A53G U56C G60U G62A	< 1e-05
C8A G40U A53G	< 1e-05
G29C A36U A52G	< 1e-05
G13U G43U G63U	< 1e-05
C8G A12U U31A G51C	< 1e-05
A12U A15C G41C C61U G66A	< 1e-05
G38A C58U C71U	< 1e-05
A36U U45G C61G	< 1e-05
A6U A15U G51C	< 1e-05
U30G G35A G51A C70A	< 1e-05
A14C U31A U54C U57A	0.000121 ± 3.3e-05
U30A G38A A52G	< 1e-05
C10U A36U G41U A42G U54G G59C	< 1e-05
A6C C11U C68U	< 1e-05
A15C U45A A64G	0.00477 ± 0.002
G7A A12G G40U A48G A52C C67U	< 1e-05
G9A G13C C34A G40C C50U C71G	< 1e-05
G9C A15U A42U	< 1e-05
A12G G38C U45A C67A	< 1e-05
C8G G29U U69G	< 1e-05

Variant	self-cleavage kobs at 2500 uM GlcN6P [s⁻¹]
A33C C50G	0.000218 ± 9.9e-05
C16A A36U C68G	0.000692 ± 0.0002
A14U G40A G43A U45G	0.000402 ± 8.4e-05
A39G G51A C68U	< 1e-05
A36C A42U G63C	< 1e-05
C10G C34G G51U	< 1e-05
G7U G62C G63C U69C	< 1e-05
C34A A48U C50U	< 1e-05
C11G G35C U45G C67A	< 1e-05
C11G G41U U57A	< 1e-05
G35C A42G U49C	< 1e-05
C10U G32A G37A A42U C50A U69G	< 1e-05
A6U G51C U55A G66A	< 1e-05
G37A A39C G63U	< 1e-05
G32A A39C C50U	< 1e-05
G43C U46G A52G U54G G60A	< 1e-05
C8A A53U C71U	< 1e-05
G35C U46A C67G	< 1e-05
G38C U49G U55A U65G	< 1e-05
C11U G35U C67A C70A	5.48e-05 ± 2.6e-05
C10G G32C A53C G63U A64G	< 1e-05
G7A G29U G59A G62U	< 1e-05
A6U C10A U49C C70G C71G	0.00019 ± 8.2e-05

Variant	self-cleavage kobs at 2500 uM GlcN6P [s⁻¹]
A14C G37C G62C	< 1e-05
C8U A15C G63C	< 1e-05
C16A G40U U57A C67U	< 1e-05
A12C G38A U49C A53C	< 1e-05
C11U G40C G44A G51A C61G C71A	< 1e-05
G32U G41U G44A C70U	< 1e-05
G13C A15C G59A	< 1e-05
G66U C68U C71G	5.06e-05 ± 2.1e-05
C10U C16A U45C	< 1e-05
C11U G63A U65C	< 1e-05
G9U G66U U69G	< 1e-05
A14G A53C U57G	0.000168 ± 5.2e-05
A6C U47C G63C	< 1e-05
C16U U31C A53C U56A C70U	0.000183 ± 4.6e-05
G38C C50A U65A	< 1e-05
A12C U55A U69C	0.000484 ± 0.00011
G29C C34G G51U U54A U65A C70U	< 1e-05
A53C U65C	0.000159 ± 3.9e-05
A33U U55C G60C	< 1e-05
G29A A33G G38A G60U	< 1e-05
A15U A39U U69C	0.000466 ± 0.00018
C11U U31C G32A A64U	< 1e-05
A15U A36G A39U	< 1e-05

Variant	self-cleavage kobs at 2500 uM GlcN6P [s⁻¹]
A12U G40A U57A A64C	< 1e-05
U31C G35U A48U U49G U57C	< 1e-05
C11G C16U G51A U65A C67G	8.38e-05 ± 3e-05
C8U G9U U56A C70G	< 1e-05
A12C A15C A48G	< 1e-05
A6G A33G U54A U56C	< 1e-05
G40U G43U C70G	< 1e-05
G37C U55G G63A C71G	< 1e-05
C8A A42C A64G	< 1e-05
G9U G35A G59A C71U	< 1e-05
A6G G9C A33U C70U	< 1e-05
C34U G38U A42U G63U	< 1e-05
C11A A33C A36G U46G G51A G62A	< 1e-05
A39C U46A U47G A48C G63A	< 1e-05
U30A C68G	7.09e-05 ± 1.5e-05
U45C U47G	0.000218 ± 9.6e-05
G13A C34U G43U	< 1e-05
A12G G32U G40U	0.000317 ± 0.00011
A36G U65C C68G	< 1e-05
C34U C50G C67A	8.66e-05 ± 2.1e-05
C8U A36C U45G A53G G60C C67A	< 1e-05
A6C A33U A52G U57C C70U	< 1e-05
A15C U45G U54A	0.000589 ± 0.00012

Variants of: B1
Assay: self-cleavage kobs at 10000 uM GlcN6P; higher = faster cleavage; RNA array
Conditions: with glucosamine-6-phosphate
Method in brief: as §1

Variant	self-cleavage kobs at 10000 uM GlcN6P [s⁻¹]
C16U G29A G41U G51U	< 1e-05
U30A G43U	< 1e-05
U55G U65C	0.000628 ± 0.00013
U30C A39U U56G	9.2e-05 ± 2.1e-05
A39G G40U U56A	0.00056 ± 0.00013
A14C A52G	0.000282 ± 5.3e-05
G9C C50G U55A U57G C70U	0.000426 ± 0.00018
A6G A33C U46G	< 1e-05
A15U C58G	4.63e-05 ± 1.2e-05
A14C U31A U54C U57A	9.39e-05 ± 1.9e-05
C16A G40U U57A C67U	< 1e-05
C16U U31C A53C U56A C70U	0.000335 ± 8.2e-05
A15U A36G A39U	< 1e-05
G37C U55G G63A C71G	< 1e-05
